# From paper PMC4917820, “Structural basis for autoinhibition and its relief of MOB1 in the Hippo pathway” (Scientific Reports, 2016)
# Changes are numbered by the printed parent chain.
# T1: GST-MOB1B, N-terminal 32-residue truncated form (33-216) (mouse, UniProt Q8BPB0 33-216)
# T1 construct: MOB1B, mouse, residues 33-216; also called NΔ32; GST-N-truncated Δ32 MOB1B; source: E. coli; GST fusion, purification of this form not described; not shown: GST, N-terminal, kept
# T1 sequence (looked up): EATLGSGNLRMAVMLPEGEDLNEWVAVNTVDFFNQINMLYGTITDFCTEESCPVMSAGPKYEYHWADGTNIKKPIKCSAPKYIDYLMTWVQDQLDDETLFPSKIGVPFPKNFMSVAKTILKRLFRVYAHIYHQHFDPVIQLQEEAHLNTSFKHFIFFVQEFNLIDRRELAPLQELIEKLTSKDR
# T2: double-mutant T12D/T35D MOB1B (1-216) (mouse, UniProt Q8BPB0 1-216, T12D | T35D)
# T2 construct: MOB1B, mouse, residues 1-216, with T12D and T35D; everywhere else it is T12D/T35D; also called phosphomimic (T12D/T35D) double-mutant; MOB1B(T12/35D); source: E. coli, purified by the same procedure as full-length MOB1B (GST removed); not shown: GST, N-terminal, cleaved
# T2 sequence (looked up): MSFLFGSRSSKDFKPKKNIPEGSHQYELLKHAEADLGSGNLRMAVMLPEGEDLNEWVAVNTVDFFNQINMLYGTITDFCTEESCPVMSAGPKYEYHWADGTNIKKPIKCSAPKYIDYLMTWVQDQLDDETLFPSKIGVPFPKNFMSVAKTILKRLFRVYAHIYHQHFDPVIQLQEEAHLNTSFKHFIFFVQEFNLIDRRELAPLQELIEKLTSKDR
# T3: N-terminal truncated MOB1B (33-216) (mouse, UniProt Q8BPB0 33-216)
# T3 construct: MOB1B, mouse, residues 33-216; also called N-terminal 32-residue truncated form; N-truncated MOB1B; source: E. coli, purified (Glutathione Sepharose 4B, HRV 3C digestion, HiTrap Q gradient, Superdex 75pg); not shown: GST, N-terminal, cleaved
# T3 sequence (looked up): T1 sequence (looked up)
# B1: NTR domain (residues 604-703) of LATS1 (domain or fragment, mouse, UniProt Q8BYR2 604-703, looked up)
# chain: KEKKQITTSPITVRKNKKDEERRESRIQSYSPQAFKFFMEQHVENVLKSHQQRLHRKKQLENEMMRVGLSQDAQDQMRKMLCQKESNYIRLKRAKMDKSM
# notes: also called wild-type; source: E. coli BL21 (DE3) Star, resolubilized from the insoluble fraction, purified (Ni-NTA, HiTrap SP, Superdex 75pg)
# B2: NTR domain (604-703) of LATS1, R656A (domain or fragment, mouse, UniProt Q8BYR2 604-703, looked up)
# chain: B1 chain with R53A
# notes: source: E. coli, resolubilized, purified (Ni-NTA, Superdex 75pg)
# B3: NTR domain (604-703) of LATS1, R693A (domain or fragment, mouse, UniProt Q8BYR2 604-703, looked up)
# chain: B1 chain with R90A
# notes: as for B2
# B4: NTR domain (604-703) of LATS1, R696A (domain or fragment, mouse, UniProt Q8BYR2 604-703, looked up)
# chain: B1 chain with R93A
# notes: as for B2
# B5: NTR domain (604-703) of LATS1, S689E (domain or fragment, mouse, UniProt Q8BYR2 604-703, looked up)
# chain: B1 chain with S86E
# notes: also called phosphomimetic substitution; source: E. coli, resolubilized, purified (Ni-NTA, Superdex 75pg)
# B6: NTR domain (residues 621-703) of LATS1 (domain or fragment, mouse, UniProt Q8BYR2 621-703, looked up)
# chain: KDEERRESRIQSYSPQAFKFFMEQHVENVLKSHQQRLHRKKQLENEMMRVGLSQDAQDQMRKMLCQKESNYIRLKRAKMDKSM
# notes: also called N-terminal regulation (NTR) domain of LATS1; source: E. coli BL21 (DE3) Star, resolubilized from the insoluble fraction, purified (Ni-NTA, HiTrap SP, Superdex 75pg)
# How the values were obtained:
# [1] = target: GST-N-terminal truncated MOB1B, N-terminal 10-residue truncated form (mouse) (UniProt Q8BPB0); assay: pull-down; GST-MOB1B and LATS1 proteins (40 μM) mixed 1:1 in 20 mM Tris-HCl (pH 7.5), 0.3 M NaCl, 1 mM DTT, applied to Glutathione Sepharose 4B, washed at 4 °C, eluted with glutathione, SDS-PAGE with Coomassie blue, band intensities
# [2] = target: T1, GST-MOB1B, N-terminal 32-residue …; assay: as above; details: both partners purified
# [3] = target: T2, double-mutant T12D/T35D MOB1B (1-216); assay: crystal structure; 1:1 molar ratio mixture of MOB1B and LATS1 (621-703) crystallised by vapor diffusion, MES pH 6.5, PEG; details: both partners purified
# [4] = target: T3, N-terminal truncated MOB1B (33-216); assay: as above; details: both partners purified
molecule,measurement,setting,value
NTR domain of LATS1 (limits not told for this experiment) (domain or fragment),"relative autoinhibition of LATS1 binding (full length 100%, NΔ32 0%)",[1],66%
B1,binding result,[2],binds
B2,binding relative to the wild-type,[2],< 20%
B3,binding relative to the wild-type,[2],< 20%
B4,binding relative to the wild-type,[2],< 20%
B5,binding relative to the wild-type,[2],< 10%
B6,binding result,[2],binds
same,binding result,[3],binds
same,binding result,[4],binds
